This data set deals with MBD2 MBD S189A (Homo sapiens, UniProt Q9UBB5 150-214, S189A). Description: fluorescence polarization; 3 mM Mg2+; 10 nM DNA; FP: 10 mM HEPES pH 7.5, 50 mM NaCl, 3 mM MgCl2, 0.1 mM EDTA, 1 mM DTT, 0.02% sodium azide; 10 nM 3'FAM DNA; temperature not stated. Particulars: protein: recombinant; tags: thioredoxin/His tag (modified pET32a) removed by TEV protease; label: 3'FAM on forward strand; blunt.
Sequence of MBD2 MBD S189A (Q9UBB5 150-214 S189A): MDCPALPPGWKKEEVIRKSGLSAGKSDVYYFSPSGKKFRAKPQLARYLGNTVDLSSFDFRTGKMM

B1: 17-bp symmetrically methylated mCpG DNA, 3'FAM (dsDNA)
DNA 1: GAGGCGCTCGGCGGCAG
DNA 2: CTGCCGCCGAGCGCCTC
modifications: 5-methylcytosine at position 9 of strand 1 and at position 8 of strand 2 (symmetric mCpG)
For B1, the equilibrium dissociation constant (Kd) (as a rule, the free concentration of one partner at which half of the binding sites on the other are occupied at equilibrium, for simple one-to-one binding) was found to be 11.5 ± 0.6 µM.

Source of the values: PMC13678254, “Exploring the bistable equilibrium of methylated CpG DNA recognition by the MBD2 protein”.
